Measurements reported in article doi:10.1101/2021.04.01.438122.

Molecular target: human Angiotensin Converting Enzyme 2 (amino acids 19-615) fused to human IgG Fc (human) (UniProt Q9BYF1)
Assay: SPR

## SARS-CoV-2 receptor binding domain (RBD amino acids 330-532) with the Y489R mutation (domain or fragment)
  reduction of binding against RBD-WT: 94%
